Data on one substance can be found in US7893197B2, “Relaxin-3 chimeric polypeptides and their preparation and use” (Janssen Pharmaceutica N.V., priority 2005, dated 2011).

This assay addresses T1, LGR7 (Homo sapiens, UniProt Q9HBX9).
T1 construct: Human LGR7 cDNA containing the complete coding region was PCR amplified; expressed in transfected cells
T1 sequence (Q9HBX9 1-757): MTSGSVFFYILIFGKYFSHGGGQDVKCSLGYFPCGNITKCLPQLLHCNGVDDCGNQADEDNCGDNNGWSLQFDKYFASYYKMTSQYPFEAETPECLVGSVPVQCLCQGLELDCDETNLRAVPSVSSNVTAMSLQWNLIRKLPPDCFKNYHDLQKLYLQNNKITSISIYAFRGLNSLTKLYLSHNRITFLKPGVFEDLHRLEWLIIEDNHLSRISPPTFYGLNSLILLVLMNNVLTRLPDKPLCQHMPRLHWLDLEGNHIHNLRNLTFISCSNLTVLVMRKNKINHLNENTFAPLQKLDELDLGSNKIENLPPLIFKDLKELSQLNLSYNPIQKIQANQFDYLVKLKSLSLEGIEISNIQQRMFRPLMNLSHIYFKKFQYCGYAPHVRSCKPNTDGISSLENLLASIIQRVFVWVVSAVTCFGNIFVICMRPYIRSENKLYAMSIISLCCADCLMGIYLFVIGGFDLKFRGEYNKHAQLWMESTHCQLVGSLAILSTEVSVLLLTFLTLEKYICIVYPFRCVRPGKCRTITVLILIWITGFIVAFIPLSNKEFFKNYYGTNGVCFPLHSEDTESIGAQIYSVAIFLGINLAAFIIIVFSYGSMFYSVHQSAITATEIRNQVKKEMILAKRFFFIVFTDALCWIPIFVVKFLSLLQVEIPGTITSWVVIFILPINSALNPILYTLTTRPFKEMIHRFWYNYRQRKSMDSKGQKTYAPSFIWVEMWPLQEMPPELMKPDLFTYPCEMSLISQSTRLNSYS
Description: Stimulation of β-galactosidase expression in SK-N-MC/β-gal cells. Type of assay: cell-based. On the procedure:
FIGS. 1A-1D show the activation of GPCR135 and GPCR142 by relaxin-3 B-chain, but not of LGR7 or LGR8. In FIG. 1A, SK-N-MC/β-gal cells expressing human GPCR135 were stimulated with relaxin-3, relaxin-3 B-chain, porcine relaxin, or INSL3 at various concentrations to inhibit the forskolin stimulated β-galactosidase expression. Forskolin was added to cells at a final concentration of 5 μM to stimulate the β-galactosidase expression. FIG. 1B depicts results for SK-N-MC/β-gal cells expressing human GPCR142 stimulated as in FIG. 1A. In FIG. 1C, SK-N-MC/β-gal cells expressing human LGR7 were stimulated with relaxin-3, relaxin-3 B-chain, porcine relaxin, and INSL3 at various concentrations to induce the β-galactosidase expression. The intracellular β-galactosidase activities were measured by a colorimetric assay using CRGP as the substrate and reading the absorbance at a wavelength of 570 nm. For FIG. 1D, SK-N-MC/β-gal cells expressing human LGR8 were stimulated as in FIG. 1C.
FIGS. 4A-4D illustrate the evaluation of the agonist activity of relaxin-3 chimeric polypeptides in biofunctional assays. Different chimeric polypeptides at various concentrations were added to SK-N-MC/β-gal cells expressing human GPCR135 (FIG. 4A) or GPCR142 (FIG. 4B) to inhibit forskolin stimulated β-galactosidase expression. Human relaxin-3 was used as the positive control. In parallel, chimeric polypeptides at various concentrations were added to SK-N-MC/β-gal cells expressing human LGR7 (FIG. 4C) and LGR8 (FIG. 4D) to stimulate β-galactosidase expression. Relaxin-3 and INSL3 were used as positive controls for LGR7 and LGR8, respectively. Intracellular β-galactosidase activity was measured by a colorimetric assay using CRGP as the substrate and reading the absorbance at wavelength of 570 nm. Data represent mean±SEM (n=3).
It has been shown that synthetic human relaxin-3 B-chain alone, but not A-chain, is an agonist for both GPCR135 and GPCR142 (Liu et al., 2003, Journal of Biological Chemistry, 278:50754-50764 and Liu et al., 2003, Journal of Biological Chemistry, 278:50765-50770). Those studies were repeated herein in SK-N-MC/β-gal cells, which harbor a β-galactosidase gene under the control of a cAMP responsive element (CRE) (Liu et al., 2001, Molecular Pharmacology, 59:420-426). In such SK-N-MC/β-gal cells, an increase in intracellular cAMP concentration leads to increased β-galactosidase gene expression, the activity of which is measured using Chlorophenol Red-β-D-Galactopyranoside (CPRG) as the substrate.
The inventive chimeric polypeptides were each independently tested for their ability to activate either GPCR135, GPCR142, LGR7, or LGR8, respectively, in separate pools of SK-N-MC/β-gal cells (see supra), each pool stably expressing one of the respective receptors, as indicated (FIG. 4).
Cells were seeded in 96-well tissue culture plate at a density of 30,000 cells/well in MEM plus 10% fetal serum, sodium pyruvate, penicillin, streptomycin, and G418 (400 mg/L). For cells expressing GPCR135 or GPCR142, forskolin was added to cells at a final concentration of 5 μM to stimulate intracellular cAMP accumulation. Different concentrations of each of the inventive polypeptides were then added to the cells to inhibit the forskolin induced cAMP accumulation. For cells expressing LGR7 or LGR8, intracellular cAMP was stimulated with each of the inventive chimeric polypeptides at various concentrations.
For all cells, after adding the chimeric polypeptides, cells were incubated for 6 additional hours in 37° C. incubator. The media was then aspirated and the β-galactosidase activities measured as previously described (Liu et al., 2001, Molecular Pharmacology, 59:420-426). The results were analyzed by Prism 3.0 software. […]

With “R3/I4: chimeric polypeptide: human relaxin-3 B-chain and INSL4 A-chain; mature polypeptide SEQ ID NO:22 (RAAPYGVRLCGREFIRAVIFTCGGSRWFDPFCCEVICDDGTSVKLC; Human Relaxin-3/Insulin-like 4 chimeric mature polypeptide)”, the “activation of LGR7, in words” value is “no activity”.
